# Assays:
# [1] = test system: C[C@@H](O)[C@H]1C(=O)N2C(C(=O)O)=C(SCCN=CN)C[C@H]12; test: purified protein; conditions: phosphate-buffered solution (1x), 50 µM ZnSO4, room temperature
# [2] = test system: C[C@@H](O)[C@H]1C(=O)N2C(C(=O)O)=C(S[C@@H]3CN[C@H](C(=O)N(C)C)C3)[C@H](C)[C@H]12; test: purified protein; conditions: phosphate-buffered solution (1x), 50 µM ZnSO4, room temperature
substance,measurement,setting,value
VIM-2 (Pseudomonas aeruginosa),Km,[1],10.31 µM
same,kcat,[1],11.1 s⁻¹
same,kcat/Km,[1],1.1e+06 M⁻¹ s⁻¹
same,Km,[2],5.37 µM
same,kcat,[2],2.1 s⁻¹
same,kcat/Km,[2],400000 M⁻¹ s⁻¹

# From article PMC10580930
